Source: patent publication US20130295102A1 (Novartis, published 2013)

Experiments:
[1] = biological target: T1, Human Factor P (human, UniProt P27918 29-469); experiment: SET, solution equilibrium titration
T1 construct: Bought protein (Complement Technology cat# A139) in SET and Biacore; Factor P of human serum in the functional assays; also called FP; human FP
Method: (§1) In SET, a constant amount of antibody is incubated with different concentrations of antigen until equilibrium is reached. The concentration of free antibody in the equilibrated solution is determined by applying the solution on an antigen coated MSD™ plate (Meso Scale Discovery™) followed by incubation with an ECL-labeled secondary antibody and measurement of signal intensity. At low antigen concentrations, a strong signal is achieved (high concentration of free antibody which binds to the antigen on the plate) whereas for high antigen concentration, the antibody is completely antigen-captured, resulting in a low signal. If a sufficient number of antigen concentrations in a matching range are available, the titration curve allows for a reasonable determination of the affinity, using the appropriate fit model. […] The constant concentration of antibody applied in the assay should be in the range of, or below, the KD (Table 4).
(§2) Human Factor P (Complement Technology cat#: A139) and Cyno Factor P purified from cyno serum (protocol adapted from Nakano, et al., (1986) J Immunol Methods 90:77-83) were coated on standard binding MSD plates (Meso-Scale Discovery, 384-well: MSD cat#: L21XA, 96-well: MSD cat#: L15XA) at 0.2-0.3 μg/ml in 25 μl PBS and incubated overnight at 4° C. Factor P inhibitors were diluted to a fixed concentration (1 pM or 10 pM) in incubation buffer (PBS with 2% BSA (Sigma cat#: A4503) and 1% Tween20 and 1% Triton-X (Sigma cat#: 234729)), and added to a serial dilution of Factor P (human or cyno) in incubation buffer. Samples were allowed to reach equilibrium by incubation at RT overnight. Plates were washed 3× in wash buffer (PBS with 0.05% Tween20), and blocked with 100 μl incubation buffer at RT for 2 hrs. Plates were washed 3× in wash buffer. Sample containing Factor P inhibitors and Factor P titration were added to the plate (25 μl), and incubated at RT for 15 min. Plates were washed 3× in wash buffer. 25 μl detection antibody was added (Anti-Human (Goat) Sulfo-TAG, 1:1000 in incubation buffer, MSD cat#: R32AJ-1), and incubated at RT for 60 min. Plates were washed 3× in wash buffer, and 50 μl of 1×MSD Read buffer T was added (with surfactant, MSD cat#: R92TC-1). Plates were read on a MSD Spector Imager 6000.

[2] = biological target: T2, Cynomolgus Factor P (cynomolgus); experiment: SET, solution equilibrium titration
T2 construct: Purified from cynomolgus serum for SET/Biacore; Factor P of cynomolgus serum in the functional assays; also called Cyno Factor P; cyno FP
Method: as §1, §2

[3] = biological target: T1, Human Factor P; experiment: Biacore SPR, captured Factor P
[4] = biological target: T2, Cynomolgus Factor P; experiment: Biacore SPR, captured Factor P
[5] = biological target: T1, Human Factor P; experiment: cell-based or functional assay
[6] = biological target: T2, Cynomolgus Factor P; experiment: cell-based or functional assay

T1 sequence (P27918 29-469 limits assumed): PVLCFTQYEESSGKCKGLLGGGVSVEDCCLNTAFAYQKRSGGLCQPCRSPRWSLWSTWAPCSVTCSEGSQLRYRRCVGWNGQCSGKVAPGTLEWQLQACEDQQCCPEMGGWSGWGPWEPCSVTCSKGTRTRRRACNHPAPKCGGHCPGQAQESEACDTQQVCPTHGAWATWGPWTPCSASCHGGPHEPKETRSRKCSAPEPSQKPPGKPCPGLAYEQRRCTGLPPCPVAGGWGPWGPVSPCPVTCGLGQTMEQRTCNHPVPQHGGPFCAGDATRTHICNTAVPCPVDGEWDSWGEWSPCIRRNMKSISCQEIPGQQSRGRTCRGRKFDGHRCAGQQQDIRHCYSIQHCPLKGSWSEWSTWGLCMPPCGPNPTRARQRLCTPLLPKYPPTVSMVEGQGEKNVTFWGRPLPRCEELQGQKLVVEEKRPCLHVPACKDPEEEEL

Row | Binder | Kd [1] | Kd [2] | Kd [3] | koff [3] | kon [3] | Kd [4] | koff [4] | kon [4] | Hemolytic assay IC50 (nM), 10% serum [5] | Inhibition of C3a generation, 20% human serum [5] | MAC Deposition, 20% Serum EC50 [5] | Zymosan-C3b IC50 (nM), 10% serum [5] | Hemolytic assay IC50 (nM), 10% serum [6] | MAC Deposition, 20% Serum EC50 [6] | Zymosan-C3b IC50 (nM), 10% serum [6]
1 | NVS962 (Fab, V domains shown, also called Fab NVS962) VH: EVQLVQSGAEVKKPGSSVKVSCKASGGTFNSYAISWVRQAPGQGLEWMGRIIPIFGTANYAQKFQGRVTITADESTSTAYMELSSLRSEDTAVYYCARHGGYSFDSWGQGTLVTVSS VL: SYELTQPPSVSVAPGQTARISCSGDNLGSKYVDWYQQKPGQAPVLVIYSDNNRPSGIPERFSGSNSGNTATLTISGTQAEDEADYYCQTYTSGNNYLVFGGGTKLTVLG | 0.046 nM | 0.047 nM | 0.083 nM | 0.000125 s⁻¹ | 1.52e+06 M⁻¹ s⁻¹ | 0.182 nM | 0.000279 s⁻¹ | 1.53e+06 M⁻¹ s⁻¹ | 13.2 nM | 78.4 nM | 18.8 nM | 2.63 nM | 16.1 nM | 12.1 nM | 9.91 nM
2 | NVS962-G (Fab, V domains shown, NVS962 with heavy chain N30 replaced with glycine) VH: EVQLVQSGAEVKKPGSSVKVSCKASGGTFGSYAISWVRQAPGQGLEWMGRIIPIFGTANYAQKFQGRVTITADESTSTAYMELSSLRSEDTAVYYCARHGGYSFDSWGQGTLVTVSS VL: SYELTQPPSVSVAPGQTARISCSGDNLGSKYVDWYQQKPGQAPVLVIYSDNNRPSGIPERFSGSNSGNTATLTISGTQAEDEADYYCQTYTSGNNYLVFGGGTKLTVLG | 0.953 nM | 0.567 nM | 1.14 nM | 0.00044 s⁻¹ | 387000 M⁻¹ s⁻¹ | 1.08 nM | 0.000339 s⁻¹ | 313000 M⁻¹ s⁻¹ | 13.4 nM | – | 12.7 nM | 1.18 nM | 14.2 nM | 9.27 nM | 2.94 nM
3 | NVS962-Q (Fab, V domains shown, NVS962 with heavy chain N30 replaced with glutamine (deamidation site removed)) VH: EVQLVQSGAEVKKPGSSVKVSCKASGGTFQSYAISWVRQAPGQGLEWMGRIIPIFGTANYAQKFQGRVTITADESTSTAYMELSSLRSEDTAVYYCARHGGYSFDSWGQGTLVTVSS VL: SYELTQPPSVSVAPGQTARISCSGDNLGSKYVDWYQQKPGQAPVLVIYSDNNRPSGIPERFSGSNSGNTATLTISGTQAEDEADYYCQTYTSGNNYLVFGGGTKLTVLG | 1.06 nM | 0.93 nM | 0.496 nM | 0.000311 s⁻¹ | 627000 M⁻¹ s⁻¹ | 0.475 nM | 0.000264 s⁻¹ | 555000 M⁻¹ s⁻¹ | 15.3 nM | – | 23.1 nM | 0.64 nM | 14.7 nM | 20.9 nM | 1.62 nM
4 | NVS962-S (Fab, V domains shown, NVS962 with heavy chain N30 replaced with serine) VH: EVQLVQSGAEVKKPGSSVKVSCKASGGTFSSYAISWVRQAPGQGLEWMGRIIPIFGTANYAQKFQGRVTITADESTSTAYMELSSLRSEDTAVYYCARHGGYSFDSWGQGTLVTVSS VL: SYELTQPPSVSVAPGQTARISCSGDNLGSKYVDWYQQKPGQAPVLVIYSDNNRPSGIPERFSGSNSGNTATLTISGTQAEDEADYYCQTYTSGNNYLVFGGGTKLTVLG | 0.156 nM | 0.141 nM | 0.161 nM | 0.000117 s⁻¹ | 730000 M⁻¹ s⁻¹ | 0.127 nM | 6.66e-05 s⁻¹ | 524000 M⁻¹ s⁻¹ | 8.21 nM | – | 6.53 nM | 1.53 nM | 12 nM | 15.6 nM | 1.94 nM
5 | NVS962-S31A (Fab, V domains shown, NVS962 with heavy chain serine 31 replaced with alanine) VH: EVQLVQSGAEVKKPGSSVKVSCKASGGTFNAYAISWVRQAPGQGLEWMGRIIPIFGTANYAQKFQGRVTITADESTSTAYMELSSLRSEDTAVYYCARHGGYSFDSWGQGTLVTVSS VL: SYELTQPPSVSVAPGQTARISCSGDNLGSKYVDWYQQKPGQAPVLVIYSDNNRPSGIPERFSGSNSGNTATLTISGTQAEDEADYYCQTYTSGNNYLVFGGGTKLTVLG | 0.189 nM | 0.189 nM | 0.225 nM | 0.000113 s⁻¹ | 504000 M⁻¹ s⁻¹ | 0.234 nM | 8.7e-05 s⁻¹ | 372000 M⁻¹ s⁻¹ | 12.8 nM | – | 9.96 nM | 1.15 nM | 11.6 nM | 7.86 nM | 3.12 nM
6 | NVS962-T (Fab, V domains shown, NVS962 with heavy chain N30 replaced with threonine; also called NSV962-T) VH: EVQLVQSGAEVKKPGSSVKVSCKASGGTFTSYAISWVRQAPGQGLEWMGRIIPIFGTANYAQKFQGRVTITADESTSTAYMELSSLRSEDTAVYYCARHGGYSFDSWGQGTLVTVSS VL: SYELTQPPSVSVAPGQTARISCSGDNLGSKYVDWYQQKPGQAPVLVIYSDNNRPSGIPERFSGSNSGNTATLTISGTQAEDEADYYCQTYTSGNNYLVFGGGTKLTVLG | 0.251 nM | 0.354 nM | 0.131 nM | 8.35e-05 s⁻¹ | 639000 M⁻¹ s⁻¹ | 0.175 nM | 8.56e-05 s⁻¹ | 488000 M⁻¹ s⁻¹ | 9.31 nM | – | 6.61 nM | 1.75 nM | 12.5 nM | 5.42 nM | 3.1 nM
7 | NVS965 (Fab, V domains shown, Disulfide-bridged Fab; also called Fab NVS965) VH: EVQLVQSGAEVKKPGSSVKVSCKASGGTFNSYAISWVRQAPGQGLEWMGRIIPIFGTANYAQKFQGRVTITADESTSTAYMELSSLRSEDTAVYYCARHGGYSFDSWGQGTLVTVSS VL: SYVLTQPPSVSVAPGKTARISCSGDNLGSKYVDWYQQKPGQAPVLVIYSDNNRPSGIPERFSGSNSGNTATLTISGTQAMDEADYYCATYDSSPRTEVFGGGTKLTVLG | 0.036 nM | 0.014 nM | 0.016 nM | 4.1e-05 s⁻¹ | 2.65e+06 M⁻¹ s⁻¹ | 0.028 nM | 6.22e-05 s⁻¹ | 2.24e+06 M⁻¹ s⁻¹ | 7.53 nM | 31.3 nM | 17.3 nM | 1.54 nM | 13.2 nM | 22.2 nM | 6.36 nM
8 | NVS965-Q (Fab, V domains shown, NVS965 with heavy chain N30 replaced with glutamine) VH: EVQLVQSGAEVKKPGSSVKVSCKASGGTFQSYAISWVRQAPGQGLEWMGRIIPIFGTANYAQKFQGRVTITADESTSTAYMELSSLRSEDTAVYYCARHGGYSFDSWGQGTLVTVSS VL: SYVLTQPPSVSVAPGKTARISCSGDNLGSKYVDWYQQKPGQAPVLVIYSDNNRPSGIPERFSGSNSGNTATLTISGTQAMDEADYYCATYDSSPRTEVFGGGTKLTVLG | 0.301 nM | 0.201 nM | 0.138 nM | 0.000366 s⁻¹ | 2.65e+06 M⁻¹ s⁻¹ | 0.215 nM | 0.000594 s⁻¹ | 2.77e+06 M⁻¹ s⁻¹ | 9.71 nM | – | 15.4 nM | 1.64 nM | 14.7 nM | 9.39 nM | 3.3 nM
9 | NVS965-S (Fab, V domains shown, NVS965 with heavy chain N30 replaced with serine) VH: EVQLVQSGAEVKKPGSSVKVSCKASGGTFSSYAISWVRQAPGQGLEWMGRIIPIFGTANYAQKFQGRVTITADESTSTAYMELSSLRSEDTAVYYCARHGGYSFDSWGQGTLVTVSS VL: SYVLTQPPSVSVAPGKTARISCSGDNLGSKYVDWYQQKPGQAPVLVIYSDNNRPSGIPERFSGSNSGNTATLTISGTQAMDEADYYCATYDSSPRTEVFGGGTKLTVLG | 0.051 nM | 0.036 nM | 0.027 nM | 9.9e-05 s⁻¹ | 3.69e+06 M⁻¹ s⁻¹ | 0.06 nM | 0.000163 s⁻¹ | 2.71e+06 M⁻¹ s⁻¹ | 7.89 nM | – | 7.32 nM | 1.39 nM | 12 nM | 8.12 nM | 1.57 nM
